Molecular target: Cul3(1–383)-(His)6 (co-expressed) (human, UniProt Q13618 1-383)
Assay: AUC

Cul3(1–383)-(His)6 (co-expressed), sequence (Q13618 1-383): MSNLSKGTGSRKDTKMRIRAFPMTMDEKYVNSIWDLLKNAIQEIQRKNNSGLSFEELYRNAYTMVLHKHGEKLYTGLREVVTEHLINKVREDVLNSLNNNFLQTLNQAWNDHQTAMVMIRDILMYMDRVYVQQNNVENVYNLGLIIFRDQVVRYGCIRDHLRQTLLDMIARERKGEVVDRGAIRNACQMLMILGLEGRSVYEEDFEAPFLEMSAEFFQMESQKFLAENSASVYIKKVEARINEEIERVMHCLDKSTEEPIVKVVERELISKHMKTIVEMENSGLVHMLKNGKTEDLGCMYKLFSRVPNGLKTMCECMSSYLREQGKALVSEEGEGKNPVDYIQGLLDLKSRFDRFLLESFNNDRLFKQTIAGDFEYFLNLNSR

stoichiometry N: 1
B1: MBP-KBTBD13(6–132) (domain or fragment, human, UniProt C9JR72 6-132, looked up)
chain: QTLVQVWVGGQLFQADRALLVEHCGFFRGLFRSGMRETRAAEVRLGVLSAGGFRATLQVLRGDRPALAAEDELLQAVECAAFLQAPALARFLEHNLTSDNCALLCDAAAAFGLRDVFHSAALFICDG

Source: article PMC5148137 (Biochemical and biophysical research communications, 2012)
